Changes are numbered by the printed parent chain. Names may count otherwise. Values belong to the binder of their own block, whether it stands above or below them.
Target: T1, CD3ε homodimer protein (human, UniProt P07766 23-126, limits assumed, sulfo-tag or biotin label in the ECL assays; amine-coupled to the chip in SPR)
T1 construct: also called human CD3ε homodimer protein; CD3 (CD3ε)
Assay: SPR Biacore T200; CD3ε homodimer on CM4 chip;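 note: Single-residue variant antibodies injected as analyte over CD3ε homodimer immobilized by amine coupling, run at 25 °C in HBS-EP+ buffer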

T1 sequence (P07766 23-126 limits assumed): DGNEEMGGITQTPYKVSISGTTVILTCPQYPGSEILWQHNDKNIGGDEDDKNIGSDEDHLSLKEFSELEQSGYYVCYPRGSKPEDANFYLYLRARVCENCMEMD

ratio of amounts bound Z=Y/X (altered form / CE115HA000): 0.52
B3: CE115HA000 Y100D one-arm antibody (antibody, human IgG1, kappa, L234A L235A, N297A, name in Kabat numbering)
heavy: QVQLVESGGGVVQPGRSLRLSCAASGFTFSNAWMHWVRQAPGKGLEWVAQIKAKSNNYATYYAESVKGRFTISRDDSKNSLYLQMNSLKTEDTAVYYCRYVHYGADYGVDAWGQGTTVTVSSASTKGPSVFPLAPSSKSTSGGTAALGCLVKDYFPEPVTVSWNSGALTSGVHTFPAVLQSSGLYSLSSVVTVPSSSLGTQTYICNVNHKPSNTKVDKKVEPKSCDKTHTCPPCPAPEAAGGPSVFLFPPKPKDTLMISRTPEVTCVVVDVSHEDPEVKFNWYVDGVEVHNAKTKPREEQYASTYRVVSVLTVLHQDWLNGKEYKCKVSNKALPAPIEKTISKAKGQPREPQVYTLPPSRCELTKNQVSLSCAVKGFYPSDIAVEWESNGQPENNYKTTPPVLDSDGSFFLVSKLTVDKSRWQQGNVFSCSVMHEALHNHYTQKSLSLSPDYKDDDDK
chain: EPKSSDKTHTCPPCPAPELLGGPSVFLFPPKPKDTLMISRTPEVTCVVVDVSHEDPEVKFNWYVDGVEVHNAKTKPREEQYNSTYRVVSVLTVLHQDWLNGKEYKCKVSNKALPAPIEKTISKAKGQPREPQVCTLPPSRDELTKNQVSLWCLVKGFYPSDIAVEWESNGQPENNYKTTPPVLDSDGSFFLYSKLTVDKSRWQQGNVFSCSVMHEALHNRYTQKSLSLSP
light: DIVMTQSPLSLPVTPGEPASISCRSSQSLVHSNRNTYLHWYQQKPGQAPRLLIYKVSNRFSGVPDRFSGSGSGTDFTLKISRVEAEDVGVYYCGQGTQVPYTFGQGTKLEIKRTVAAPSVFIFPPSDEQLKSGTASVVCLLNNFYPREAKVQWKVDNALQSGNSQESVTEQDSKDSTYSLSSTLTLSKADYEKHKVYACEVTHQGLSSPVTKSFNRGEC

ratio of amounts bound Z=Y/X (altered form / CE115HA000): 0.18
B6: CE115HA000 Y97S one-arm antibody (antibody, human IgG1, kappa, L234A L235A, N297A, name in Kabat numbering)
heavy: B3 heavy with Y103S, D106Y
chain: B3 chain
light: B3 light

ratio of amounts bound Z=Y/X (altered form / CE115HA000): 0.11
B8: CE115HA000 Y97P one-arm antibody (antibody, human IgG1, kappa, L234A L235A, N297A, name in Kabat numbering)
heavy: B3 heavy with Y103P, D106Y
chain: B3 chain
light: B3 light

ratio of amounts bound Z=Y/X (altered form / CE115HA000): 0.27
B10: CE115HA000 Y97R one-arm antibody (antibody, human IgG1, kappa, L234A L235A, N297A, name in Kabat numbering)
heavy: B3 heavy with Y103R, D106Y
chain: B3 chain
light: B3 light

ratio of amounts bound Z=Y/X (altered form / CE115HA000): 0.9
B15: CE115HA000 Y100A one-arm antibody (antibody, human IgG1, kappa, L234A L235A, N297A, name in Kabat numbering)
heavy: B3 heavy with D106A
chain: B3 chain
light: B3 light

ratio of amounts bound Z=Y/X (altered form / CE115HA000): 0.94
B23: CE115HA000 Y59S one-arm antibody (antibody, human IgG1, kappa, L234A L235A, N297A, name in Kabat numbering)
heavy: B3 heavy with Y62S, D106Y
chain: B3 chain
light: B3 light

ratio of amounts bound Z=Y/X (altered form / CE115HA000): 1.07
B26: CE115HA000 Y100G one-arm antibody (antibody, human IgG1, kappa, L234A L235A, N297A, name in Kabat numbering)
heavy: B3 heavy with D106G
chain: B3 chain
light: B3 light

ratio of amounts bound Z=Y/X (altered form / CE115HA000): 0.24
B28: CE115HA000 Y97D one-arm antibody (antibody, human IgG1, kappa, L234A L235A, N297A, name in Kabat numbering)
heavy: B3 heavy with Y103D, D106Y
chain: B3 chain
light: B3 light

ratio of amounts bound Z=Y/X (altered form / CE115HA000): 0.18
B29: CE115HA000 Y97G one-arm antibody (antibody, human IgG1, kappa, L234A L235A, N297A, name in Kabat numbering)
heavy: B3 heavy with Y103G, D106Y
chain: B3 chain
light: B3 light

ratio of amounts bound Z=Y/X (altered form / CE115HA000): 0.16
B32: CE115HA000 Y97A one-arm antibody (antibody, human IgG1, kappa, L234A L235A, N297A, name in Kabat numbering)
heavy: B3 heavy with Y103A, D106Y
chain: B3 chain
light: B3 light

Second part, the binder before the results:

B1: CE115HA000 V100cD one-arm antibody (antibody, human IgG1, kappa, L234A L235A, N297A, name in Kabat numbering)
heavy: B3 heavy with D106Y, V109D
chain: B3 chain
light: B3 light
ratio of amounts bound Z=Y/X (altered form / CE115HA000): 0.44

B2: CE115HA000 Y59A one-arm antibody (antibody, human IgG1, kappa, L234A L235A, N297A, name in Kabat numbering)
heavy: B3 heavy with Y62A, D106Y
chain: B3 chain
light: B3 light
ratio of amounts bound Z=Y/X (altered form / CE115HA000): 0.85

B4: CE115HA000 W33A one-arm antibody (antibody, human IgG1, kappa, L234A L235A, N297A, name in Kabat numbering)
heavy: B3 heavy with W33A, D106Y
chain: B3 chain
light: B3 light
ratio of amounts bound Z=Y/X (altered form / CE115HA000): 0.1

B5: CE115HA000 W33D one-arm antibody (antibody, human IgG1, kappa, L234A L235A, N297A, name in Kabat numbering)
heavy: B3 heavy with W33D, D106Y
chain: B3 chain
light: B3 light
ratio of amounts bound Z=Y/X (altered form / CE115HA000): 0.1

B7: CE115HA000 Y58K one-arm antibody (antibody, human IgG1, kappa, L234A L235A, N297A, name in Kabat numbering)
heavy: B3 heavy with Y61K, D106Y
chain: B3 chain
light: B3 light
ratio of amounts bound Z=Y/X (altered form / CE115HA000): 0.3

B9: CE115HA000 Y58S one-arm antibody (antibody, human IgG1, kappa, L234A L235A, N297A, name in Kabat numbering)
heavy: B3 heavy with Y61S, D106Y
chain: B3 chain
light: B3 light
ratio of amounts bound Z=Y/X (altered form / CE115HA000): 0.18

B11: CE115HA000 W33F one-arm antibody (antibody, human IgG1, kappa, L234A L235A, N297A, name in Kabat numbering)
heavy: B3 heavy with W33F, D106Y
chain: B3 chain
light: B3 light
ratio of amounts bound Z=Y/X (altered form / CE115HA000): 0.65

B12: CE115HA000 Y55S one-arm antibody (antibody, human IgG1, kappa, L234A L235A, N297A, name in Kabat numbering)
heavy: B3 heavy with Y58S, D106Y
chain: B3 chain
light: B3 light
ratio of amounts bound Z=Y/X (altered form / CE115HA000): 0.26

B13: CE115HA000 W33L one-arm antibody (antibody, human IgG1, kappa, L234A L235A, N297A, name in Kabat numbering)
heavy: B3 heavy with W33L, D106Y
chain: B3 chain
light: B3 light
ratio of amounts bound Z=Y/X (altered form / CE115HA000): 0.1

B14: CE115HA000 Y58Q one-arm antibody (antibody, human IgG1, kappa, L234A L235A, N297A, name in Kabat numbering)
heavy: B3 heavy with Y61Q, D106Y
chain: B3 chain
light: B3 light
ratio of amounts bound Z=Y/X (altered form / CE115HA000): 0.19

B16: CE115HA000 Y59E one-arm antibody (antibody, human IgG1, kappa, L234A L235A, N297A, name in Kabat numbering)
heavy: B3 heavy with Y62E, D106Y
chain: B3 chain
light: B3 light
ratio of amounts bound Z=Y/X (altered form / CE115HA000): 0.86

B17: CE115HA000 Y58A one-arm antibody (antibody, human IgG1, kappa, L234A L235A, N297A, name in Kabat numbering)
heavy: B3 heavy with Y61A, D106Y
chain: B3 chain
light: B3 light
ratio of amounts bound Z=Y/X (altered form / CE115HA000): 0.22

B18: CE115HA000 W33H one-arm antibody (antibody, human IgG1, kappa, L234A L235A, N297A, name in Kabat numbering)
heavy: B3 heavy with W33H, D106Y
chain: B3 chain
light: B3 light
ratio of amounts bound Z=Y/X (altered form / CE115HA000): 0.13

B19: CE115HA000 V100cP one-arm antibody (antibody, human IgG1, kappa, L234A L235A, N297A, name in Kabat numbering)
heavy: B3 heavy with D106Y, V109P
chain: B3 chain
light: B3 light
ratio of amounts bound Z=Y/X (altered form / CE115HA000): 0.2

B20: CE115HA000 Y58N one-arm antibody (antibody, human IgG1, kappa, L234A L235A, N297A, name in Kabat numbering)
heavy: B3 heavy with Y61N, D106Y
chain: B3 chain
light: B3 light
ratio of amounts bound Z=Y/X (altered form / CE115HA000): 0.33

B21: CE115HA000 Y55G one-arm antibody (antibody, human IgG1, kappa, L234A L235A, N297A, name in Kabat numbering)
heavy: B3 heavy with Y58G, D106Y
chain: B3 chain
light: B3 light
ratio of amounts bound Z=Y/X (altered form / CE115HA000): 0.65

B22: CE115HA000 Y55D one-arm antibody (antibody, human IgG1, kappa, L234A L235A, N297A, name in Kabat numbering)
heavy: B3 heavy with Y58D, D106Y
chain: B3 chain
light: B3 light
ratio of amounts bound Z=Y/X (altered form / CE115HA000): 0.45

B24: CE115HA000 Y58L one-arm antibody (antibody, human IgG1, kappa, L234A L235A, N297A, name in Kabat numbering)
heavy: B3 heavy with Y61L, D106Y
chain: B3 chain
light: B3 light
ratio of amounts bound Z=Y/X (altered form / CE115HA000): 0.27

B25: CE115HA000 W33Y one-arm antibody (antibody, human IgG1, kappa, L234A L235A, N297A, name in Kabat numbering)
heavy: B3 heavy with W33Y, D106Y
chain: B3 chain
light: B3 light
ratio of amounts bound Z=Y/X (altered form / CE115HA000): 0.66

B27: CE115HA000 Y58D one-arm antibody (antibody, human IgG1, kappa, L234A L235A, N297A, name in Kabat numbering)
heavy: B3 heavy with Y61D, D106Y
chain: B3 chain
light: B3 light
ratio of amounts bound Z=Y/X (altered form / CE115HA000): 0.11

B30: CE115HA000 Y59D one-arm antibody (antibody, human IgG1, kappa, L234A L235A, N297A, name in Kabat numbering)
heavy: B3 heavy with Y62D, D106Y
chain: B3 chain
light: B3 light
ratio of amounts bound Z=Y/X (altered form / CE115HA000): 0.7

B31: CE115HA000 V100cE one-arm antibody (antibody, human IgG1, kappa, L234A L235A, N297A, name in Kabat numbering)
heavy: B3 heavy with D106Y, V109E
chain: B3 chain
light: B3 light
ratio of amounts bound Z=Y/X (altered form / CE115HA000): 0.46

Source: patent publication US20260049138A1 (Chugai, published 2026)
